These results are taken from patent US20250326840A1 (QURE BIOTECHNOLOGY SHANGHAI, published 2025).

In the assay “QP094 (human SIRPα V1 …)” the target is T1, QP094 (human SIRPα V1 ECD(E31-R370)-flag-his) (human, UniProt P78324 31-370).
T1 construct: the construct carries flag and his tags; also called SIRPαV1-flag-his; SIRPαV1-his (QP094)
The experiment in a line: SPR, Biacore 8K.

The assay “QP096 (human SIRPα V2 …)” addresses T2, QP096 (human SIRPα V2 ECD(E31-R370)-flag-his) (human).
T2 construct: the construct carries flag and his tags; also called SIRPαV2-Flag-his; Human SIRPα V2 (QP096)
In words: SPR, Biacore 8K.

Assay [1] has as its target SIRPα V8 fusion Fc (mouse IgG2a) (human). In words: ELISA, SIRPα V8-mouse IgG2a Fc coated, anti-hFab detection.
For assay [2], the target named is SIRPα V7 fusion Fc (mouse IgG2a) (human). In words: ELISA, SIRPα V7-mouse IgG2a Fc coated, anti-hFab detection.
Sequence of SIRPα V7 fusion Fc (mouse IgG2a) (human) (chain, as listed by the source limits assumed): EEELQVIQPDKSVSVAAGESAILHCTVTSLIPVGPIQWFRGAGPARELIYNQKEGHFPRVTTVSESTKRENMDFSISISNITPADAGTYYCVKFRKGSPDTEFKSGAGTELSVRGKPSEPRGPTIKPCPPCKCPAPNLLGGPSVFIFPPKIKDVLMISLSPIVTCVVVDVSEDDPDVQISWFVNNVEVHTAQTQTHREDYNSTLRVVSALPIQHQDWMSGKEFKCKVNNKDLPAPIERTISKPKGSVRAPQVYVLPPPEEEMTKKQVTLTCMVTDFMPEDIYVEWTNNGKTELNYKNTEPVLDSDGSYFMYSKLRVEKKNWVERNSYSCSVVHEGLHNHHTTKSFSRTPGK
The target of assay [3] is SIRPα V10 fusion Fc (mouse IgG2a) (human). The experiment in a line: ELISA, SIRPα V10-mouse IgG2a Fc coated, anti-hFab detection; unit from the x axis; the curve is flat at the baseline, the fit is marked ambiguous (~).
Sequence of SIRPα V10 fusion Fc (mouse IgG2a) (human) (chain, as listed by the source limits assumed): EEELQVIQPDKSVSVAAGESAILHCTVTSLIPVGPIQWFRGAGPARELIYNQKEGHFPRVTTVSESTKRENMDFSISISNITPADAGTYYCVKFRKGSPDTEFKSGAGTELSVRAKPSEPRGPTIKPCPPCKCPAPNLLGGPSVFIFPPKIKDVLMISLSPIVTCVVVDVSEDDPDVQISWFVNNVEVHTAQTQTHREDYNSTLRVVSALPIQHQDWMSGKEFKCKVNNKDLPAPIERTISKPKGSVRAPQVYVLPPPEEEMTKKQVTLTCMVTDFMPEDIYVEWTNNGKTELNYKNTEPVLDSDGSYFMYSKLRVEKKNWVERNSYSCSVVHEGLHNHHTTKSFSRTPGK
Assay [4] addresses T3, QP271 (rhesus SIRPα1-flag-his T-557-28) (rhesus monkey).
T3 construct: also called rhesus monkey SIRPα (QP271); monkeySIRPα1-flag-his
T3 chain: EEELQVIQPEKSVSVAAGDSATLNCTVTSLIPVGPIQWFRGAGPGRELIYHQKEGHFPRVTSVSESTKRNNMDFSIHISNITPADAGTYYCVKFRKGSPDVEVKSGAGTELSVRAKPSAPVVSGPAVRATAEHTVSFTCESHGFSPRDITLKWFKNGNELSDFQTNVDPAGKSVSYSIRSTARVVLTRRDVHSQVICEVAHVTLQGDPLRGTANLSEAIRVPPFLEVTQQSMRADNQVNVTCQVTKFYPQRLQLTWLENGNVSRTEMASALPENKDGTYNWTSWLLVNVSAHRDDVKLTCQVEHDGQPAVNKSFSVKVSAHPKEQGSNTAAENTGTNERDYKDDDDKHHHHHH
In words: binding ELISA, antigen coated.

For assay [5], the target named is T4, QP100 (cyno SIRPα (G7PGS8) ECD(E29-R368)-flag-his) (cynomolgus).
T4 construct: the construct carries flag and his tags; also called cynoSIRPα-flag-his; Cynomolgus SIRPα (QP100)
T4 chain: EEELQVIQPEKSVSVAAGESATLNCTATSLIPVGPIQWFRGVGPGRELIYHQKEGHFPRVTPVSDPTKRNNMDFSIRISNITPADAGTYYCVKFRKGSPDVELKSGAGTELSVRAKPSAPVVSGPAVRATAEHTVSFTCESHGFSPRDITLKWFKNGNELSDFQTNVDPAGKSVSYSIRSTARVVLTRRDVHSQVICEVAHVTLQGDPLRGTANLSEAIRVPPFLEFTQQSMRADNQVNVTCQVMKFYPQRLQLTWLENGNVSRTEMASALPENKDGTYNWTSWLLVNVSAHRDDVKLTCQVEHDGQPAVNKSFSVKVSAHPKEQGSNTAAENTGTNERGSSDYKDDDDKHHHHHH
The experiment in a line: binding ELISA, antigen coated.

The target of assay [6] is T5, QP098 (cyno SIRPα (I7G9Z7) ECD(E31-R369)-flag-his) (cynomolgus).
T5 construct: the construct carries flag and his tags; also called cynoSIRPα (ECD); cynomolgus SIRPα
T5 chain: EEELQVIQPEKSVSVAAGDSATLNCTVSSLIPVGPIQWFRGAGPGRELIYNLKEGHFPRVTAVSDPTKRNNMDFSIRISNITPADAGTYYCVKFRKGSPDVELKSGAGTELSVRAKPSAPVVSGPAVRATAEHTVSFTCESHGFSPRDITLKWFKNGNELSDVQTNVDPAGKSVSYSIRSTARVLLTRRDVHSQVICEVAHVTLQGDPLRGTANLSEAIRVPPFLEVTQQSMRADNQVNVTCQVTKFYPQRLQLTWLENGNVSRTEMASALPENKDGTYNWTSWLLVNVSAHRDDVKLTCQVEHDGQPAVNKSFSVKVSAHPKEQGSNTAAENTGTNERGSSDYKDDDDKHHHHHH
In words: binding ELISA, antigen coated.

For assay [7], the target named is T6, QP273 (cynoSIRPα2-flag-his T-557-14) (cynomolgus).
T6 construct: also called cynomolgus SIRPα (QP273)
T6 chain: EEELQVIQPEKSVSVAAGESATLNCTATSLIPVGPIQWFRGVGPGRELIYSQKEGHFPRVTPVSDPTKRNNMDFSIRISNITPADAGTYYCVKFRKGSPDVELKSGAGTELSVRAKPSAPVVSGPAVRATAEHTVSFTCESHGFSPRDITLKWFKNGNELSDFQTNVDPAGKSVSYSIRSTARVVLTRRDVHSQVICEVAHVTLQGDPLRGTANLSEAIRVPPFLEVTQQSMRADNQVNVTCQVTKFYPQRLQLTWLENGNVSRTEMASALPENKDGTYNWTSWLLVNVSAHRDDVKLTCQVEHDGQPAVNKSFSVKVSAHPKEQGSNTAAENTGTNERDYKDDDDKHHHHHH
In words: binding ELISA, antigen coated.

Assay [8] has as its target T3, QP271 (rhesus SIRPα1-flag-his T-557-28). In words: SPR, Biacore.
Assay [9] addresses T5, QP098 (cyno SIRPα (I7G9Z7) …). In words: SPR, Biacore.
The target of assay [10] is T6, QP273 (cynoSIRPα2-flag-his T-557-14). In words: SPR, Biacore.
The target of a further assay is QP003 (PDL1-his). The experiment in a line: ELISA, QP003 (PDL1-his) captured on coated anti-his, anti-hFc detection; unit from the x axis; the curve is flat at the baseline, the fit is marked ambiguous (~).
Sequence of QP003 (PDL1-his) (chain, as listed by the source limits assumed): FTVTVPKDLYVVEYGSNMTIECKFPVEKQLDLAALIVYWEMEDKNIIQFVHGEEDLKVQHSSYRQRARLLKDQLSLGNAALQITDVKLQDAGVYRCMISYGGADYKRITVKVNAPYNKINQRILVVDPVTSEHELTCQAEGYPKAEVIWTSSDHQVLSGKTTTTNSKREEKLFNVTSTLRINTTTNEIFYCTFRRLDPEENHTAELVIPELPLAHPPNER
In the next assay the target is T7, QP002 (biotinylated in the blocking assays, sites not given).
T7 construct: also called SIRPα-FC; Biotin-QP002
T7 sequence (SIRPα-Fc fusion chain, as listed by the source): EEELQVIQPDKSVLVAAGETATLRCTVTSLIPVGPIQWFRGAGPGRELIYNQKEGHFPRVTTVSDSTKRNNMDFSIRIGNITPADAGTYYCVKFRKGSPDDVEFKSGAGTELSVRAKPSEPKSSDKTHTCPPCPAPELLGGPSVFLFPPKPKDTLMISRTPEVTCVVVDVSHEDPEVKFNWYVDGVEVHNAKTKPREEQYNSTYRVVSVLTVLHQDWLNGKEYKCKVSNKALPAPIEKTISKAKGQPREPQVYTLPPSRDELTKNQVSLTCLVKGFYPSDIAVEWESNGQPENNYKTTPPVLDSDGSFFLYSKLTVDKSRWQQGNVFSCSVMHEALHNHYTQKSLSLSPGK
The experiment in a line: blocking ELISA: CD47 FC (QP001) coated, biotin SIRPα-FC (QP002) mixed with the antibody, HRP-streptavidin; blocked ligand: CD47; unit from the x axis Log(Conc.(nM)).

Sequence of SIRPα V8 fusion Fc (mouse IgG2a) (human) (chain, as listed by the source limits assumed): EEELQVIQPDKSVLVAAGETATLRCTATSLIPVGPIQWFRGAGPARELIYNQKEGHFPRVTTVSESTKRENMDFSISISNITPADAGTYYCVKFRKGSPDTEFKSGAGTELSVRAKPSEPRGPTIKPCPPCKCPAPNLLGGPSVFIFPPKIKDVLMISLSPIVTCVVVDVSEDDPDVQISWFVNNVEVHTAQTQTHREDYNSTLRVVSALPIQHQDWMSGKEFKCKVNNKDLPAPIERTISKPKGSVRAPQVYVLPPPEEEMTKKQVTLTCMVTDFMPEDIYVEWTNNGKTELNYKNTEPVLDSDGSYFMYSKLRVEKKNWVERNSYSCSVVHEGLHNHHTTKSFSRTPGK

B1: QP026249 (KWAR23 analog) (antibody, human IgG4 S228P, kappa)
heavy: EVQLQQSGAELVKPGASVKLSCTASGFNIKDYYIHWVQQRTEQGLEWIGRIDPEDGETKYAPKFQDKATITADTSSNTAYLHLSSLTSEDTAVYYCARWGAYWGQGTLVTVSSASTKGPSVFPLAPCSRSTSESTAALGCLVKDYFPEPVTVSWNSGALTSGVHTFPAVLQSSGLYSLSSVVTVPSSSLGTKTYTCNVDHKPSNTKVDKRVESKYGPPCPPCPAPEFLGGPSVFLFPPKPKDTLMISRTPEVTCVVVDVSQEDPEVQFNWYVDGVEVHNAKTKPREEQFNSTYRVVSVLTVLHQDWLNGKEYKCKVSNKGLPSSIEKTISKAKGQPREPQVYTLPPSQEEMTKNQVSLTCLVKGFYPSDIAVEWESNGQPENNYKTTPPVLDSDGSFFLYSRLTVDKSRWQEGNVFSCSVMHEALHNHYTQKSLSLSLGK
light: QIVLTQSPAIMSASPGEKVTLTCSASSSVSSSYLYWYQQKPGSSPKLWIYSTSNLASGVPARFSGSGSGTSYSLTISSMEAEDAASYFCHQWSSYPRTFGAGTKLELKRTVAAPSVFIFPPSDEQLKSGTASVVCLLNNFYPREAKVQWKVDNALQSGNSQESVTEQDSKDSTYSLSSTLTLSKADYEKHKVYACEVTHQGLSSPVTKSFNRGEC
notes: also called KAWA23 analog; control antibody KWAR23 (QP026249), human IgG4
For the molecule B1, in the assay with QP094 (human SIRPα V1 …), the Kd was determined as 4.69 nM, the koff stood at 0.00386 s⁻¹ and the kon was found to be 822000 M⁻¹ s⁻¹. Moreover, in the assay with QP096 (human SIRPα V2 …), the Kd amounted to 17.5 nM, the off-rate (koff) is 0.0242 s⁻¹ and the kon came out at 1.38e+06 M⁻¹ s⁻¹.

B2: QP250251 (18D5 analog) (antibody, human IgG4 S228P, kappa, V domains shown)
VH: QVQLQQPGAELVRPGSSVKLSCKASGYTFTSYWVHWVKQRPIQGLEWIGNIDPSDSDTHYNQKFKDKASLTVDKSSSTAYMQLSSLTFEDSAVYYCVRGGTGTMAWFAYWGQGTLVTVSA
VL: DVVMTQTPLSLPVSLGDQASISCRSSQSLVHSYGNTYLYWYLQKPGQSPKLLIYRVSNRFSGVPDRFSGSGSGTDFTLKISRVEAEDLGVYFCFQGTHVPYTFGSGTKLEIKR
notes: also called SIRPα antibody 18D5 from OSE
As for B2, the binding result in [1] and in [2] was “no binding (tested: about 67 nM (last point at log 1.8))” in each case. The molecule also showed a concentration for a half-maximal effect (EC50) in assay [3] of about 0.0554 nM.

B3: QP256279 (antibody, human IgG4, V domains shown)
VH: QVQLVQSGAEVKKPGASVKVSCKASGYTFTNYWINWVRQAPGQGLEWIAMIDPSDSETHYNQIFKDRATLTTDTSTSTAYMELRSLRSDDTAVYYCAMDYGSLYAMDYWGRGTLVTVSS
VL: DIVLTQSPDSLAVSLGERATINCRASQSVRSSGYNWIFWYQQKPGQPPKLLIYLASNRDSGVPDRFSGSGSGTDFTLTISSLQAEDVAVYYCQHSRELPTFGQGTKLEIK
notes: Human IgG4 heavy constant region and kappa CL
As for B3, the EC50 in assay [4] worked out at 0.601 ng/mL; in [5], 0.558 ng/mL; in assay [6] it was 0.619 ng/mL; in [7] it was 0.721 ng/mL. The Kd amounted to 0.441 nM in assay [8], 1.56 nM in assay [9] and 0.918 nM in [10].

B4: QP32700279 (antibody, human IgG1, kappa, L234A L235A, V domains shown)
VH: QVQLVQSGAEVKKPGASVKVSCKASGYTFTNYWINWVRQAPGQGLEWIAMIDPSDSETHYNQIFKDRATLTTDTSTSTAYMELRSLRSDDTAVYYCAMDYGSLYAMDYWGRGTLVTVSS
VL: DIVLTQSPDSLAVSLGERATINCRASQSVRSSGYNWIFWYQQKPGQPPKLLIYLASNRDSGVPDRFSGSGSGTDFTLTISSLQAEDVAVYYCQHSRELPTFGQGTKLEIKR
notes: also called SIRPα monoclonal antibody CHO71
Regarding B4, the EC50 with QP003 (PDL1-his) was about 0.000628 nM. The molecule also returned an IC50 in the assay with QP002 of 0.208 nM.
